Data taken from a protein production outcome set (Wang et al. 2014).

Test: label from the status in PepcDB records

Sequence	protein production
MKGIKSACALIVLTFFSALTQAATAVEMAKQAYFLIERDPLDLDQRNEASYLIQRANVLDGDEPWVAVAQSRLTLVSGYKVGQRHDRRAYEESAVSTARQQAERAVRNGPNLAMAHVQLAMVLIIQGELRTAWDHLNTADSLDEQSFYPWYLRTVIAIHHKDEKFAAEGFKEIESRASQKYQKRLLLHERMRLAKATKNLEERDRLHRKMIELDPDYAYAWGNYGSFLLGQKRYREAVHNLERAVELKPYGLAVSQLAEARRKLNQAF	failed
MNPKVKGIIAILVSAIGFSFMSVFFRLAGDLPVFQKSLARNLVAMFIPLYFIYKYKQPLFGKLSSQPLLISRSTLGLIGVLLNIYAIDHMILSDADTLMKLNPFWTILLSLIFLNEKVRNYQIIAMVIAIFGMLFVVKPEFSSSMIPAIGGLFSGIFAASAYTCVRALSTREAPYTIVFYFSFFSIVVLIPFTIFTFEPMSMMQVIYLIGAGLAAAAGQIGITLAYSYAPAKDISIFTYASIIFTAFFGFILFGESPDFYAILGYVIIIASSYYMFEKARRQPLSIQKEEQKPKT	failed
MTNHQKRLAVPKSWPVERKEEAYTTKAAAGPHGEEGVPLLIVLRDVLGYVDSKKEARYALEQDSILINGTAVSDERRPVGMFDILAFDEREEYYRIFPDEGGRLSLTPIDEDAAGSKLGKIVGKTQVAGGDTQLSLHDGETLLVEDATAYDTNDSIVVSNDGEEIVAHFTYEEGALVTAVSGAHAGRIGTIDEIQVTPGSSANNVLIDAENDDERFETVEEYVVVIDENFTDGGDDE	failed
MLIATFFFTSHFSRAKQPMWYNGLLDLSVWQVIAVTLAMTHVTIVGVTVYLHRYSAHRSLELNAGLKHFFRFWLWLTTAQNTREWTAIHRKHHAKCETVDDPHSPVVKGLSTVLRKGAELYREEAQNQDTLRIYGKNCPEDWIERNLYSRYKMLGIVLMAVIDLALFGAIGITVWAIQMMWIPFWAAGVVNGLGHAVGYRNFECRDAATNLVPWGIVIGGEELHNNHHTYPNSAKLSVKPWEFDMGWAWIKLFSFLRLAKVQRVAPIAHRVEGKGHIDMDTAMAILNNRFQIMAQYRKLVIAPLVTQELAKADESVRHQFRRAKRLLSRETSLLDDKHHLRIQTMLEHSHALKVIYEKRLALQQIWVKTSSNGHDMLSAMKEWIHEAEASGIQSLREFADQLKTYSLRPVHA	failed
RQKFINDVLHLLYRPLDWNQSIAKVMELLGRFTQADRSYIFENSPDDSYATNTFEWCQEGIAPQIHLLQHFEYSLMPSWKPLIVEKKMICASDISTLPLDLSETLAPQGIKSILAVSIFAQGRLYGYLGLDSCRKKREWSEEEIELLRSISTIIAGAIERRGWERSEKEQ	failed
MPTTRKENLQFGMMMCLGMVIVMTFYNLLMNETGGPIYIKEIALELLIGFIIALLIEISIVGPCAKKIVFMLPFDKSKKINIIVAMATTMVIGMVFFMSFFGMAMMHLHGGLQGASFVSIYFSIFIKNFIMAYPLQLIIMGPLVRFLFAKFVMKKKSFNVA	failed
MSSSSTSGLPATLPFEELAEAIKGRRSDYGHISGLQLDRFAPAEAWSSLPYRPVFVGDTETGVLHGGVVTAMLDESCGMAVQLALDGTRAIATLDLRIDYQKPATPGLDIKAHSVCYRTTRSIAFVRSTAYQESEDDPVATATACFMIGANRTNMLADRRMDSRSIPTLEAPEDPDGPFARSPFARCLGIRVNDDGTLTMPFSPKIIGNPILPAIHGGMTGAFLETTAIIGVARELGAAAPPKPIGLTINYLRSGRALDSFANVSIVKQGRRIVAFEARAWQDDADKPIATAFGHFMLRPTPGNDEE	failed
MDLPVMPPVKPMLAKSVAKIPPGMHYEAKWDGFRAIVYRDGDEVELGSRTGKPLTRYFPELVVAVRERLPERCVVDGEIVIARDGHLDFDALTERIHPADSRVRTLAERTPASLVAFDLLALDDASLLDVGLADRRALLVRALSGVTPPVHVAPATDDIEVARRWFEQYEGAGLDGVVAKPLDLRYRQDERAMYKIKHERTADVVVAGYRFHKSGPVVGSLLLGLYDDRGLLQHVGVSAAFTMKRRAELVAELEPLRMDDARGHPWAAWAEEAAHESARLPGAPSRWSGKKDLSWVPLRPERVVEVAYDHMENGARFRHTARFRRWRPDRTPESCTYAQLEEPVRYDLAEILGGPLEHHHHHH	failed
MNPILNLIISFIALLWAANHLVAGSSGLAIRFQLSPLMIGLTIVALGTSAPELFISIISSLKDKNDLAIGNAIGSNIANIGLILGIIILIKPTSFHFNKLKKVYPILIIVMLFAYSLILDGYLGTIDGCLFLIGCIAVLCYFIYLASHSPKRDLSVNEFRPAILSYRSTPSNLLSIAIGLLILPICSKYLVYNASEIAKWAGISEFTIGLTIIAIGSSLPELTTALVAAIKGEDSIAIGTIIGSNIYNLLLILALPGLLNPTKISSVVLWRDMPVMLSITLLLLFLNYYYQKKTSSWPGGILLLVYFCYMASLIINAHS	failed
IRVAAFNVLNYDNGAEKGFPTDRGATTATEFSRQHQKIVTALKAINADVYGLMEIANNGYDEKSAIAYLTKSLGPDWKYITPPNMNRLGSDVIAVGILYNAKRVKPVNAAVVFDDQSQKNRVTMAQTFQPIHGGKFFTVIPNHLKSKGSCPEDTASTDADQLDGQGCWNPTRVKAVEQLIQWAAKNPTRVQQPNILFLGDMNSYAKEDPILAFEKANYKVLLNDEKIGQGKQAYSYVFGVSSNALGYGGAGNIDHAIADSNLYRFVKRAFVWHINADEPTALDYNEEYKTDEQKTLFYADDAYRSSDHDPVIVDLDLKESAQQGGVLNFIQQLLDWIAQLFTRT	failed
MSTLQRRRVNRADSGDTSSIHSSANNTKGDKIANIAVDGDDDNGTNKKIAYDPEESKLRDNINIPTLTLMEEVLLMGLRDREGYLSFWNDSISYALRGCIIIELALRGKIRILDDSARKRFDLSERLIEVIDSSKTGEVLLDETLQLMKNDEPLSISNWIDLLSGETWNLLKINYQLKQVRERLAKGLVDKGVLRTEMKNFFLFDMATHPIADASCKEAIKRRVLSVLVSRNMELSYNEYFPETTSFKIIRTLALICGSYGANVLENVLTTLEYEKRDKAISRAEEIMAQFSQYPFDLEKETELGVSVNLNKEVKEEIENNPGHDLQLEVIAGVFEVFSRMDMLL	failed
MNMVEPLAVAILIAYLVALLLIGLLSSKKSSVGMTDFFIAGRNLNKWTVALSAVSSGRSAWLVLGVTGTAYATGLDAVWAVAGYITVEVFLFFYVARRFRAYSEQTGSITIPDILETRFNDKTHILRGGSAFIIMFFMIAYVASQLVAGGGAFATSMGVSSSTGMWVTAVILLAYTMLGGFHAVSKTDVVQAGFMFVSLVILPVVAIIGLGGFDPLLQVMHTEGGGFTSPFAFGFGAVIGLLGIGFGSPGNPHILVRYMSLKNVKEMRQAALISSVWNVLMGWGAVMIGLAGRAYFPDVSLLPNGDQEQVFLMLGSEILHPLFFGFLLVAVLAAIMSSADSQLLVGSSAFVRDIYQKMFRRNRKLSQKKLVRLSRLTTVVFMGLSLILAFTAQEFVFWMVLFAFGGLGACFGPALLLSFYWKGVTRQGVLWGMIAGLLTVILVKQQPQWTYAFLPDVKELLNTYFFGITYEAVPGFIVATTITVVISLFTKRPKHAKQIIERLNESA	failed
MEVIREQEFVNQYHYDARNLEWEEENGTPKTNFEVTFQLANRDEAAKVTSIVAVLQFVIVRDEFVISGVISQMAHIQGRLINEPSEFSQDEVENLAAPLLEIVKRLTYEVTEIALDRPGVTLEFNS	not failed
MDLETLRARREAVLSLCARHGAVRVRVFGSVARGEAREDSDLDLLVAFEEGRTLLDHARLKLALEGLLGVRVDIVSERGLAPRLREQVLREAIPL	not failed
MRAFDAYKILDEQEAGSLIDLIAPCMDDYLYIIDLKNDTLRISQSAVERFMLPDKFMNDATKHLRTLVYEKDRKLLENHKRKIYDGKEKRYNVLCRLMNSKNLPVWINCRGEVINDEAGKPRYIIGCMNETGTRQRADNISGLLGEKEMASYLYSQPKEKLSGYFIQIGIDDFGIINNVQGQIYGNYILKRVAECIAECLSSGQRIYHLVTDKYMLVDMLSKSQDDVVQLFKRIGEKIDEFIVDENYKSIFSISAGVTDISTLAEDAIECRKKSDFSLKCAKKRGGGSLYFFEEEDYKVSLRKNTILSALRSATVNDFEGFEVYYQPILDSADRIIGAEALLRFFMHSDEGDEMISPVEFIPLLEKSRLIIPVGEFVLNEAAKMCREMQQYIADFRVNINVSYIQIMRGSMANKILTAIRANNLRPESICIEMTESGFMDMTPCFCSFRKKLDENNIQFIIDDFGTGYSNLRYISEMNPDYVKIDKDFTARAMSSEKDYELFRKIIEMVHSINIKICIEGIEKEEWACAMKEIHVDYMQGYLYGRPCEKGVFLNNYGI	failed
MKMIETSLASASAALRDRVDEILAAATREDGCAPLSESFLNGLRRADDGHVHSCVMDSHDQVVGVAARDGDSAEVVVDPAFRRQGYGSFLIRHVVSQGVKNVWAHGDGAGAKAVAKALQLEQTRQLLVMAVEGDRLVESAQLQVPSGFRVLALNEAYESIPDIEQQWLRVNNEAFEWHPEQGGWDSARLAQARDTQWFRESDVLFLIDTAKRTVAGFHWTKRHGDLAEGADGEVYVVGLGSAYRRRGLGDLLIRMGLHHLEYEHARRVILYVEGDNESARRAYDALGFHVVESHVTYSPQSSS	failed
MKTEKEKREEEEEDLRPFRIHAYSKEELAMLYNPTYCISNAIYTLAAWIRHNKALKGELEKVGYNKYRRTFTPLEVKVLVKYLGEP	failed
MLIVNREEYSKSDFDLRLQAYEEMEQFQEAAGNRFALCLKDPFDIITLVFFLKEKKSSVLLIHEDTPKETAIEMAKRANCIGILYGENSDFTKLEAVNYLAEEPSLLQYSSGTTGEPKLIRRAWTEVDTEIKVYNEALNCDIDEVPIVMAPVSHSYGLICGTLSAITRGSKPIIITNKNPKFALNIVRNTEKHIVYAVPLMLHIMGSFPQGTFQFHKIMTSGAPLPEALFYKLKETTTYMMQQYGCSEAGCISICHDMKSHLDLGNPLPHASISIGSDENAPEEIIVKMNDKEIFTKDLGYKSERGLHFMGRMDDVINVSGLKVFPIEVEETMLRLEGVQEAIVYRGKHPVMGEIVKAKVISHIDPVQIREWCMQHLPSYKVPHEIESVTEIPKNKTGKVSRKLLEMGEVTT	failed
MALREMIIDESDDIESYSDQSLCLDKAKELLALIKLPTGLLPLKDMTEVGYNKTKGFVWMRMRSKIEHTFREIGRRVLYDTEITAFVEDRRMRRLTGVKSKELMIWVPVNDIFIKRKILRRSPLLIPPACHEHLKFQHFNVRVDKLKEKRSNQTSLM	failed
MSLEDHAEELASDLGVDKEEVTRDLENLVNYSVPMDEAKQSLRRKYGDGSSGGDSTPSSKAINEVSTEDSNVTVTAVVLTSGRRSIQYNGEQHVIREGELADETGKISYTAWDGFSGDLQPGQTVQLGNAGVREWDGQPELNLGDSTDPEVVDETLDIDYDVGGRAALQDLAPGDRGITVEVQVLECEQKVIDGRDGETTILSGVLGDESGRLPFTDWDPHDEIEEGASVRLDETFVREFRGAPSVNVSEFSAVTALDRTVGVTEDAPRLSVREAVESGGLFDVELAGNVIEVRDGSGLIERCPECGRVIQNGQCRSHGAVEGEDDLRTKAILDDGTDTVTAVLDDELTARVYGGDLDDAREHARDAMDKEVVAERISDRIVGREYVVRGSLSVDEYGANLTASTFAEADDDPATRAQALLQEADTLEHHHHHH	not failed
MEELDEKLANRVQVSKRAVAKIVQVIDRLMQRNEKITHVLKGDSLASAGSGSGAGAGGEEEQQQASGDAETTTSSAGVHALEETLKQTHIEIMSENHKLQNLNTSLHEKFHTMSLKMKEYQDAHTAKETENAELKNQIDELQYDLEKIHCRNDKLENHLAEAIEKLKAYHQIYGDPNKSTNSAKTPTTTGSGGATTSVNSQLLEELQKELEEYRELAN	failed
